Target: T1, NtrX D53E (His-NtrXD53E) (Sinorhizobium meliloti 1021, UniProt Q92Q87 1-454, D53E)
T1 sequence: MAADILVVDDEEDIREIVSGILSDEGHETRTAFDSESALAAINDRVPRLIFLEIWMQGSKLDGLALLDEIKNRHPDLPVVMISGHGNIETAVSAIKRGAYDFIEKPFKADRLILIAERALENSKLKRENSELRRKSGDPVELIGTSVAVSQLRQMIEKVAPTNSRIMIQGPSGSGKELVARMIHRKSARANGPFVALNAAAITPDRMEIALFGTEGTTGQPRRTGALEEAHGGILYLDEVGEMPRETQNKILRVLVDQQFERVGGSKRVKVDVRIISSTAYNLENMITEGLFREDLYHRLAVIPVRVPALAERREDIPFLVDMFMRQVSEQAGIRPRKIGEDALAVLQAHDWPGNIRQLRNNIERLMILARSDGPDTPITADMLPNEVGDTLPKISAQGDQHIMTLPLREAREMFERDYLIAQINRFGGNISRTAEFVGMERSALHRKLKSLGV
Test: EMSA; 5 mM Mg2+; almost no complex; EMSA, 20 uL: 3, 6, 15 ng NtrX, 2 nM probe (2 or 40 nM in Methods), 1x binding buffer, 5 mM MgCl2, 50 ng/uL poly(dI-dC), 0.05% NP-40, 1% glycerol, 30 min at 28 C; pH and salt of binding buffer not stated (phosphorylation in 50 mM Tris-HCl pH 7.6, 50 mM KCl, 20 mM MgCl2 nominal 1x)
Conditions: protein: recombinant; tags: His (pET28b); chain copies: 2; label: biotin; blunt

B1: ntrY promoter probe (dsDNA)
DNA 1: GCGCTTGACTGAGATGCAACACCGTTGCATTTTCGCCACAATGCGTTGCTTGAACCTCGCATAAGCGTCGATTCGCCGGC
DNA 2: GCCGGCGAATCGACGCTTATGCGAGGTTCAAGCAACGCATTGTGGCGAAAATGCAACGGTGTTGCATCTCAGTCAAGCGC
- binding result: no binding

Source: article PMC9223101, “Transcription Regulation of Cell Cycle Regulatory Genes Mediated by NtrX to Affect Sinorhizobium meliloti Cell Division”
